Measured values as given in publication PMC6506218.

Biological target: full-length AgrC-I Q305A in lipid nanodiscs (S. aureus)
Experiment: fluorescence polarisation

Row | Substance | Kd [µM]
1 | AIP-I (peptide) | 0.056
2 | AIP-II (peptide) | 0.151
